Our source for the fold ELISA signal against scFv values is patent US20240052039A1.

This experiment addresses recombinant α4β1 integrin (R&D Systems) (UniProt P13612). The experiment in a line: ELISA, recombinant α4β1 immobilised; reference is the anti-VLA-4 scFv. In general terms: An ELISA detects its analyte on a solid surface through an enzyme-linked reagent.

On to Fab of Natalizumab, for which the fold ELISA signal against scFv came to 10 times.
